From patent US20230220042A1 (SHANGHAI JIAO TONG UNIVERSITY SCHOOL OF MEDICINE, published 2023)

T1: FcγRIIA^131H (human, UniProt P12318 34-217, biotin-labeled)
T1 construct: extracellular domain; Bought protein; also called RIIAH
T1 sequence (looked up): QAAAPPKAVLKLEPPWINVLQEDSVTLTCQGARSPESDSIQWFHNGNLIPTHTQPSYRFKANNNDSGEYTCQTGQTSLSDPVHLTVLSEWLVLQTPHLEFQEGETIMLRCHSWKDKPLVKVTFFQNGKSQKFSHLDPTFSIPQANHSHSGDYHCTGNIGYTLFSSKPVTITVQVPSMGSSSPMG

T2: FcγRIIA^131R (human, UniProt P12318 34-217, biotin-labeled)
T2 construct: extracellular domain; Bought protein; also called RIIAR
T2 sequence (looked up): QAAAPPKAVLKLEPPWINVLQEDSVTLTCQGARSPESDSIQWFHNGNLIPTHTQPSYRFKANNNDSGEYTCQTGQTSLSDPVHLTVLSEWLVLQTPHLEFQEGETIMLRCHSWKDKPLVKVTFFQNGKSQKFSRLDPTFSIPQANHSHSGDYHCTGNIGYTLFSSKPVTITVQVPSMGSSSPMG

T3: FcγRIIB (human, UniProt P31994 43-217, biotin-labeled)
T3 construct: extracellular domain; Bought protein; also called CD32b
T3 sequence (looked up): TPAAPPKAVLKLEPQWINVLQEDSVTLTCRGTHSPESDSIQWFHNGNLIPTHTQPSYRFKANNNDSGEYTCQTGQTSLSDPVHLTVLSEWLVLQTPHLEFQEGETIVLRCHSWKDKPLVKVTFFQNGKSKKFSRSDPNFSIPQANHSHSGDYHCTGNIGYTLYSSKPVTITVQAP


Key:
[1] = target: T4, FcγRI (human, UniProt P12314 16-292, biotin-labeled); test: ELISA, coated antibody, biotin-FcγR;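 for Absorbance value: antibody coated at 2 µg/mL at 100 µL per well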
T4 construct: extracellular domain; Bought protein; also called CD64

[2] = target: T1, FcγRIIA^131H; test: ELISA, coated antibody, biotin-FcγR;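 for Absorbance value: antibody coated at 2 µg/mL at 100 µL per well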
[3] = target: T2, FcγRIIA^131R; test: ELISA, coated antibody, biotin-FcγR;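 for Absorbance value: antibody coated at 2 µg/mL at 100 µL per well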
[4] = target: T3, FcγRIIB; test: ELISA, coated antibody, biotin-FcγR;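 for Absorbance value: antibody coated at 2 µg/mL at 100 µL per well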
[5] = target: T5, FcγRIIIA^158F (human, UniProt P08637 17-208, biotin-labeled); test: ELISA, coated antibody, biotin-FcγR;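 for Absorbance value: antibody coated at 2 µg/mL at 100 µL per well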
T5 construct: extracellular domain; Bought protein; also called RIIIAF

[6] = target: T6, FcγRIIIA^158V (human, UniProt P08637 17-208, biotin-labeled); test: ELISA, coated antibody, biotin-FcγR;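 for Absorbance value: antibody coated at 2 µg/mL at 100 µL per well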
T6 construct: extracellular domain; Bought protein; also called RIIIAV; CD16a 158V

[7] = target: T3, FcγRIIB; test: ELISA; relative affinity to FcγRIIB over that to FcγRIIA131R

T5 sequence (P08637 17-208): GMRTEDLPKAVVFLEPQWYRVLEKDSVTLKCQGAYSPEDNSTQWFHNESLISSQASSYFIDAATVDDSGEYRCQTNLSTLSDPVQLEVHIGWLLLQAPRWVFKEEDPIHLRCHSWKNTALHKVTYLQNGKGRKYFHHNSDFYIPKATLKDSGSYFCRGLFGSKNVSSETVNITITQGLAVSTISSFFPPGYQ
T6 sequence (P08637 17-208 F176V): as the sequence (P08637 17-208) above, with F160V counted along it
T4 sequence (P12314 16-292): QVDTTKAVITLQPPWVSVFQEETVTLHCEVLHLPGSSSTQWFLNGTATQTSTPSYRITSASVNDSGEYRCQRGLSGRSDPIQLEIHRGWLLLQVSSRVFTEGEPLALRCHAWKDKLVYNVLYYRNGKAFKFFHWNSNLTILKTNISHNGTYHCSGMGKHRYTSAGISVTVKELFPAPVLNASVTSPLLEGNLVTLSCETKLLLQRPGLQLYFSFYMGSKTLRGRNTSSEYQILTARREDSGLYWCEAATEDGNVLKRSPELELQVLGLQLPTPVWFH

Row | Absorbance value [1] | Relative binding affinity RI/G1 [1] | Absorbance value [2] | Relative binding affinity RIIAH/G1 [2] | Absorbance value [3] | Relative binding affinity RIIAR/G1 [3] | Absorbance value [4] | Increased factor of RIIB binding compared with wild-type IgG2 [4] | Relative binding affinity RIIB/G1 [4] | Absorbance value [5] | Relative binding affinity RIIIAF/G1 [5] | Absorbance value [6] | Relative binding affinity RIIIAV/G1 [6] | RIIB/RIIAR [7] | Binder
1 | 0.08 A650 | 0.03 ratio | 0.04 A650 | 0.07 ratio | 0.04 A650 | 0.17 ratio | 0.47 A650 | 6.21 fold | 0.62 ratio | 0.06 A650 | 0.31 ratio | 0.05 A650 | 0.06 ratio | 3.67 ratio | anti-human OX40 IgG2 antibody Mut_15 (V234Q/A235G/P238L/S239V/G327A/L328E/A330S/I332T) (antibody, Substitutions in Eu numbering; entries include an unstated signal peptide) heavy: QVQLQESGPGLVKPSGTLSLTCAVSGGSISSSIWWSWVRQPPGKGLEWIGEIHHSGNTNCNPSLKSRVTISIDKSKNQFSLKLTSVTAADTAVYYCARAGTGTTLDYWGQGTLVTVSSASTKGPSVFPLAPCSRSTSESTAALGCLVKDYFPEPVTVSWNSGALTSGVHTFPAVLQSSGLYSLSSVVTVPSSNFGTQTYTCNVDHKPSNTKVDKTVERKCCVECPPCPAPPQGGLVVFLFPPKPKDTLMISRTPEVTCVVVDVSHEDPEVQFNWYVDGVEVHNAKTKPREEQFNSTFRVVSVLTVVHQDWLNGKEYKCKVSNKAEPSPTEKTISKTKGQPREPQVYTLPPSREEMTKNQVSLTCLVKGFYPSDIAVEWESNGQPENNYKTTPPMLDSDGSFFLYSKLTVDKSRWQQGNVFSCSVMHEALHNHYTQKSLSLSPGK light: EIVLTQSPGTLSLSPGERATLSCRASQSVSGDYLAWYQQKLGQAPRLLIYGASIRATGIPDRFSGSGSGTDFTLTISKLEPEDFAVYYCQQYGSSPLTFGGGTKVEIKRTVAAPSVFIFPPSDEQLKSGTASVVCLLNNFYPREAKVQWKVDNALQSGNSQESVTEQDSKDSTYSLSSTLTLSKADYEKHKVYACEVTHQGLSSPVTKSFNRGEC
2 | 0.1 A650 | 0.04 ratio | 0.39 A650 | 0.68 ratio | 0.5 A650 | 1.92 ratio | 1.09 A650 | 14.5 fold | 1.44 ratio | 0.06 A650 | 0.32 ratio | 0.06 A650 | 0.06 ratio | 0.75 ratio | anti-human OX40 IgG2 antibody Mut_16 (S267E/S298G) (antibody, name in EU numbering, Substitutions in Eu numbering; entries include an unstated signal peptide) heavy: QVQLQESGPGLVKPSGTLSLTCAVSGGSISSSIWWSWVRQPPGKGLEWIGEIHHSGNTNCNPSLKSRVTISIDKSKNQFSLKLTSVTAADTAVYYCARAGTGTTLDYWGQGTLVTVSSASTKGPSVFPLAPCSRSTSESTAALGCLVKDYFPEPVTVSWNSGALTSGVHTFPAVLQSSGLYSLSSVVTVPSSNFGTQTYTCNVDHKPSNTKVDKTVERKCCVECPPCPAPPVAGPSVFLFPPKPKDTLMISRTPEVTCVVVDVEHEDPEVQFNWYVDGVEVHNAKTKPREEQFNGTFRVVSVLTVVHQDWLNGKEYKCKVSNKGLPAPIEKTISKTKGQPREPQVYTLPPSREEMTKNQVSLTCLVKGFYPSDIAVEWESNGQPENNYKTTPPMLDSDGSFFLYSKLTVDKSRWQQGNVFSCSVMHEALHNHYTQKSLSLSPGK light: EIVLTQSPGTLSLSPGERATLSCRASQSVSGDYLAWYQQKLGQAPRLLIYGASIRATGIPDRFSGSGSGTDFTLTISKLEPEDFAVYYCQQYGSSPLTFGGGTKVEIKRTVAAPSVFIFPPSDEQLKSGTASVVCLLNNFYPREAKVQWKVDNALQSGNSQESVTEQDSKDSTYSLSSTLTLSKADYEKHKVYACEVTHQGLSSPVTKSFNRGEC
